Where no end group is shown, it is not given here.
Molecular target: T1, MBP-KLHL15-His (human, UniProt Q96M94 1-604)
T1 construct: KLHL15, human; gene amplified from the pCMV6-KLHL15 vector and subcloned into the pFB-MBP-fusion plasmid; In the pull-downs MBP was kept (coupled to amylose beads); MBP was cleaved only for the protein purified further; also called recombinant MBP-KLHL15; recombinant KLHL15 purified from insect cells; not shown: MBP, N-terminal, kept
T1 sequence (looked up): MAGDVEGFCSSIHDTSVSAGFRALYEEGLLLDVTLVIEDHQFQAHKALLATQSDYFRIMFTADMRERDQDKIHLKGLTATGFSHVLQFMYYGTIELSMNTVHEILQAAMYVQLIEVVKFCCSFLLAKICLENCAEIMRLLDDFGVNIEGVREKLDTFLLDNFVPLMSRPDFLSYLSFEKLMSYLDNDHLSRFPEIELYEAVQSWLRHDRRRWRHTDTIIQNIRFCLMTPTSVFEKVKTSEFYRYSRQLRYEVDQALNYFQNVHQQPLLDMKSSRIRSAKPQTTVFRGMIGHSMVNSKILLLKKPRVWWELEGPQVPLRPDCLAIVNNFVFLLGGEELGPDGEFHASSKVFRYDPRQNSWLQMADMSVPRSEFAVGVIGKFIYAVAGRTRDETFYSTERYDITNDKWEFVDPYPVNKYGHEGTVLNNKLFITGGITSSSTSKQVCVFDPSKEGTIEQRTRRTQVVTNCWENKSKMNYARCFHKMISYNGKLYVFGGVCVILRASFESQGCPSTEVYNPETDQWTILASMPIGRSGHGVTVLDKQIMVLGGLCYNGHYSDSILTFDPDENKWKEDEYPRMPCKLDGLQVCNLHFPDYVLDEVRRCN
Test: pull-down; competition: CtIP 15-mer peptide added in the indicated amounts to MBP-KLHL15 on amylose beads with HEK293T lysate
Conditions: both partners purified

- binding result: binds
B1: biotinylated 15-mer peptide encompassing CtIP amino acid residues 830–844 (peptide, UniProt Q99708 830-844, looked up)
peptide: KKLASCSRHRFRYIP
modifications: also: biotinylated (position not given here)
notes: CtIP, human, residues 830-844 in the CTD; also called CtIP peptide; CtIP 15-mer peptide; source: synthetic peptide, bought: Bachem AG
